Reference: paper PMC11997217, “Inactivation of GH3.5 by COP1-mediated K63-linked ubiquitination promotes seedling hypocotyl elongation” (Nature Communications, 2025)

Biological target: T1, MBP-COP1 (Arabidopsis, UniProt P43254 1-675)
T1 construct: CONSTITUTIVELY PHOTOMORPHOGENIC 1 (COP1), Arabidopsis; full-length COP1 fused with MBP-tag; The plasmid for full-length MBP-COP1 is not described in the methods; only its expression and purification are; also called CONSTITUTIVELY PHOTOMORPHOGENIC 1; full-length COP1; source: E. coli BL21, purified (amylose resin); not shown: MBP, N-terminal, kept
T1 sequence (looked up): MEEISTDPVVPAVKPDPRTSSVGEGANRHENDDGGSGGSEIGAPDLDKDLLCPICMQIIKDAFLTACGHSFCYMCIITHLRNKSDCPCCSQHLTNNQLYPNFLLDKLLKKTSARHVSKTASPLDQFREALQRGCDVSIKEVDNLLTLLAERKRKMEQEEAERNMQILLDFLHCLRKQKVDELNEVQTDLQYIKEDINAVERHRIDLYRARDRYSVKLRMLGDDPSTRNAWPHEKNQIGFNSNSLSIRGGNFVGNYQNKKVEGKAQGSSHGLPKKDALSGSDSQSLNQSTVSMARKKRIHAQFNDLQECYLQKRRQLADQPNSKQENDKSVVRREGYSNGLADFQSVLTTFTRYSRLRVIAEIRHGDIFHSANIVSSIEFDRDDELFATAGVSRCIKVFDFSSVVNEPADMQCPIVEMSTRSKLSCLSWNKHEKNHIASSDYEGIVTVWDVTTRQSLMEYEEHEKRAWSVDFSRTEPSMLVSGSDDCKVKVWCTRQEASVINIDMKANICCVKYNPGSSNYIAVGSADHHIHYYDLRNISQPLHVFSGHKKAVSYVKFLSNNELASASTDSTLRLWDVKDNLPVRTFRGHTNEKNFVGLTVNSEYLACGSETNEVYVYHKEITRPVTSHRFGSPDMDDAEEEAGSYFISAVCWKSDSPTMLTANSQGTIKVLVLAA
Test: pull-down; 1 μg GST-GH3.5 and 1 μg MBP-tagged COP1 in 25 mM Tris-HCl pH 7.5, 100 mM NaCl, 0.25% NP40, 4 °C; captured on amylose resin; washed with 500 mM NaCl, 0.5% NP40; blots with anti-MBP and anti-GST
Settings: both partners purified

B1: GST-GH3.5 (enzyme, Arabidopsis, UniProt O81829 1-612, looked up)
chain: MPEAPKKESLEVFDLTLDQKNKQKLQLIEELTSNADQVQRQVLEEILTRNADVEYLRRHDLNGRTDRETFKNIMPVITYEDIEPEINRIANGDKSPILSSKPISEFLTSSGTSGGERKLMPTIEEELDRRSLLYSLLMPVMSQFVPGLENGKGMYFLFIKSESKTPGGLPARPVLTSYYKSSHFKERPYDPYTNYTSPNETILCSDSYQSMYSQMLCGLCQHQEVLRVGAVFASGFIRAIKFLEKHWIELVRDIRTGTLSSLITDPSVREAVAKILKPSPKLADFVEFECKKSSWQGIITRLWPNTKYVDVIVTGTMSQYIPTLDYYSNGLPLVCTMYASSECYFGVNLRPLCKPSEVSYTLIPSMAYFEFLPVHRNNGVTNSINLPKALTEKEQQELVDLVDVKLGQEYELVVTTYAGLCRYRVGDLLRVTGFKNKAPQFSFICRKNVVLSIDSDKTDEVELQNAVKNAVTHLVPFDASLSEYTSYADTSSIPGHYVLFWELCLDGNTPIPPSVFEDCCLAVEESFNTVYRQGRVSDKSIGPLEIKIVEPGTFDKLMDYAISLGASINQYKTPRCVKFAPIIELLNSRVVDSYFSPKCPKWVPGHKQWGSN
notes: the GH3.5 CDS inserted into BamHI/EcoRI of pGEX4T-1; also called GRETCHEN HAGEN 3.5; source: E. coli BL21, purified (Glutathione Sepharose 4B); not shown: GST, N-terminal, kept
  binding result: binds
